These results are taken from patent publication US20250003951A1 (OXFORD UNIVERSITY INNOVATION, published 2025).

What all share (experiment): cell-based or functional assay
Experiment [1] has as its target T1, OX628-81 (human).
T1 peptide: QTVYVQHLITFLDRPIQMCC

Experiment [2] concerns the target T2, OX628-80 (human).
T2 peptide: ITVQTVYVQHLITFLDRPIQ

Experiment [3] has as its target T3, OX1149-190 (human).
T3 peptide: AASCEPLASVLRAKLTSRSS

Experiment [4] has as its target T4, OX747-157 (human).
T4 peptide: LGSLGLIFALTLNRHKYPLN

For experiment [5], the target named is T5, OX747-158 (human).
T5 peptide: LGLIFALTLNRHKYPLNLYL

The target of experiment [6] is T6, OX289-074 (human).
T6 peptide: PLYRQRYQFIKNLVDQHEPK

Experiment [7] has as its target T7, OX289-073 (human).
T7 peptide: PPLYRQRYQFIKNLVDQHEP

B1: OX628 Peptides 80/81 clone 2 TCR (TCR, V domains shown)
V domain 1: GQQLNQSPQSMFIQEGEDVSMNCTSSSIFNTWLWYKQDPGEGPVLLIALYKAGELTSNGRLTAQFGITRKDSFLNISASIPSDVGIYFCAGANNNARLMFGDGTQLVVKP
V domain 2: SAVISQKPSRDICQRGTSLTIQCQVDSQVTMMFWYRQQPGQSLTLIATANQGSEATYESGFVIDKFPISRPNLTFSTLTVSNMSPEDSSIYLCSVTPGGGVNTEAFFGQGTRLTVVE
With B1, the “Clone size (percent repertoire), IFNγ+ sorted T cells after peptide stimulation” value (“Clone size (percent repertoire)” for short) in experiment [1] and in experiment [2] was 13.5 % of repertoire each time.

B2: OX1149 Peptide 190 clone 2 TCR (TCR, V domains shown)
V domain 1: SQQGEEDPQALSIQEGENATMNCSYKTSINNLQWYRQNSGRGLVHLILIRSNEREKHSGRLRVTLDTSKKSSSLLITASRAADTASYFCAAMYSGGGADGLTFGKGTHLIIQP
V domain 2: EPEVTQTPSHQVTQMGQEVILRCVPISNHLYFYWYRQILGQKVEFLVSFYNNEISEKSEIFDDQFSVERPDGSNFTLKIRSTKLEDSAMYFCASSTQGQAYEQYFGPGTRLTVTE
As for B2, in experiment [3], the “Clone size (percent repertoire)” value was 17.3 % of repertoire.

B3: OX747 Peptides 157/158 clone 2 TCR (TCR, V domains shown)
V domain 1: AQKVTQAQTEISVVEKEDVTLDCVYETRDTTYYLFWYKQPPSGELVFLIRRNSFDEQNEISGRYSWNFQKSTSSFNFTITASQVVDSAVYFCALSEATYNTDKLIFGTGTRLQVFP
V domain 2: ETGVTQSPTHLIKTRGQQVTLRCSSQSGHNTVSWYQQALGQGPQFIFQYYREEENGRGNFPPRFSGLQFPNYSSELNVNALELDDSALYLCASSSTGTDYGYTFGSGTRLTVVE
As for B3, the “Clone size (percent repertoire)” value in experiment [4] and in experiment [5] was 9.8 % of repertoire each time.

B4: OX747 Peptides 157/158 clone 5 TCR (TCR, V domains shown)
V domain 1: GQQLNQSPQSMFIQEGEDVSMNCTSSSIFNTWLWYKQDPGEGPVLLIALYKAGELTSNGRLTAQFGITRKDSFLNISASIPSDVGIYFCAGQQKTSGSRLTFGEGTQLTVNP
V domain 2: DGGITQSPKYLFRKEGQNVTLSCEQNLNHDAMYWYRQDPGQGLRLIYYSQIVNDFQKGDIAEGYSVSREKKESFPLTVTSAQKNPTAFYLCASSSPRDRVGQPQHFGDGTRLSILE
In the case of B4, the “Clone size (percent repertoire)” value in experiment [4] and in experiment [5] was 7.7 % of repertoire throughout.

B5: OX1149 Peptide 190 clone 5 TCR (TCR, V domains shown)
V domain 1: DQQVKQNSPSLSVQEGRISILNCDYTNSMFDYFLWYKKYPAEGPTFLISISSIKDKNEDGRFTVFLNKSAKHLSLHIVPSQPGDSAVYFCAATRAGGTSYGKLTFGQGTILTVHP
V domain 2: SQTIHQWPATLVQPVGSPLSLECTVEGTSNPNLYWYRQAAGRGLQLLFYSVGIGQISSEVPQNLSASRPQDRQFILSSKKLLLSDSGFYLCAWSVLAGVSQYFGPGTRLLVLE
As to B5, the “Clone size (percent repertoire)” value in experiment [3] was 4.8 % of repertoire.

B6: OX1149 Peptide 190 clone 3 TCR (TCR, V domains shown)
V domain 1: GENVEQHPSTLSVQEGDSAVIKCTYSDSASNYFPWYKQELGKRPQLIIDIRSNVGEKKDQRIAVTLNKTAKHFSLHITETQPEDSAVYFCAARGGSNYKLTFGKGTLLTVNP
V domain 2: DAGVIQSPRHEVTEMGQEVTLRCKPISGHDYLFWYRQTMMRGLELLIYFNNNVPIDDSGMPEDRFSAKMPNASFSTLKIQPSEPRDSAVYFCASSTGGEQYFGPGTRLTVTE
Turning to B6, the “Clone size (percent repertoire)” value in experiment [3] was 9 % of repertoire.

B7: OX289 Peptides 73/74 clone 3 TCR (TCR)
TCR alpha: AQSVTQLDSQVPVFEEAPVELRCNYSSSVSVYLFWYVQYPNQGLQLLLKYLSGSTLVKGINGFEAEFNKSQTSFHLRKPSVHISDTAEYFCAVSGTGANSKLTFGKGITLSVRPDIQNPDPAVYQLRD
TCR beta 1: GAGVSQSPSNKVTEKGKDVELRCDPISGHTALYWYRQSLGQGLEFLIYFQGNSAPDKSGLPSDRFSAERTGGSVSTLTIQRTQQEDSAVYLCASSDPISGRGDEQFFGPGTRLTVLEDLKNVFPPEVAVFEPS
TCR beta 2: GAGVSQSPSNKVTEKGKDVELRCDPISGHTALYWYRQSLGQGLEFLIYFQGNSAPDKSGLPSDRFSAERTGGSVSTLTIQRTQQEDSAVYLCASSFGGGAWNEQFFGPGTRLTVLEDLKNVFPPEVAVFEPS
With B7, the “Clone size (percent repertoire)” value in experiment [6] and in experiment [7] was 8.67 % of repertoire throughout.

B8: OX1149 Peptide 190 clone 4 TCR (TCR, V domains shown)
V domain 1: SQQGEEDPQALSIQEGENATMNCSYKTSINNLQWYRQNSGRGLVHLILIRSNEREKHSGRLRVTLDTSKKSSSLLITASRAADTASYFCATKGGNNRLAFGKGNQVVVIP
V domain 2: EPEVTQTPSHQVTQMGQEVILRCVPISNHLYFYWYRQILGQKVEFLVSFYNNEISEKSEIFDDQFSVERPDGSNFTLKIRSTKLEDSAMYFCASSAWTGETGYTFGSGTRLTVVE
B8: the “Clone size (percent repertoire)” value in experiment [3] was 5.7 % of repertoire.

B9: OX747 Peptides 157/158 clone 4 TCR (TCR, V domains shown)
V domain 1: AQKVTQAQTEISVVEKEDVTLDCVYETRDTTYYLFWYKQPPSGELVFLIRRNSFDEQNEISGRYSWNFQKSTSSFNFTITASQVVDSAVYFCALSEMNRDDKIIFGKGTRLHILP
V domain 2: NAGVMQNPRHLVRRRGQEARLRCSPMKGHSHVYWYRQLPEEGLKFMVYLQKENIIDESGMPKERFSAEFPKEGPSILRIQQVVRGDSAAYFCASSPTGVSGNTIYFGEGSWLTVVE
In the case of B9, the “Clone size (percent repertoire)” value in experiment [4] and in experiment [5] was 7.9 % of repertoire throughout.

B10: OX289 Peptides 73/74 clone 2 TCR (TCR)
TCR alpha: ELKVEQNPLFLSMQEGKNYTIYCNYSTTSDRLYWYRQDPGKSLESLFVLLSNGAVKQEGRLMASLDTKARLSTLHITAAVHDLSATYFCAVEETSGSRLTFGEGTQLTVNPDIQNPDPAVYQLRD
TCR beta 1: EAQVTQNPRYLITVTGKKLTVTCSQNMNHEYMSWYRQDPGLGLRQIYYSMNVEVTDKGDVPEGYKVSRKEKRNFPLILESPSPNQTSLYFCASSLRQGISPEQFFGPGTRLTVLEDLKNVFPPEVAVFEPS
TCR beta 2: EAQVTQNPRYLITVTGKKLTVTCSQNMNHEYMSWYRQDPGLGLRQIYYSMNVEVTDKGDVPEGYKVSRKEKRNFPLILESPSPNQTSLYFCASSERQGITEAFFGQGTRLTVVEDLNKVFPPEVAVFEPS
Take B10: the “Clone size (percent repertoire)” value in experiment [6] and in experiment [7] was 25.6 % of repertoire each time.

B11: OX628 Peptides 80/81 clone 1 TCR (TCR, V domains shown)
V domain 1: GQQLNQSPQSMFIQEGEDVSMNCTSSSIFNTWLWYKQEPGEGPVLLIALYKAGELTSNGRLTAQFGITRKDSFLNISASIPSDVGIYFCAGHQIQGAQKLVFGQGTRLTINP
V domain 2: NAGVTQTPKFRILKIGQSMTLQCTQDMNHNYMYWYRQDPGMGLKLIYYSVGAGITDKGEVPNGYNVSRSTTEDFPLRLELAAPSQTSVYFCASSYSGMNTEAFFGQGTRLTVVE
Turning to B11, the “Clone size (percent repertoire)” value in experiment [1] and in experiment [2] was 55.1 % of repertoire in each case.

B12: OX1149 Peptide 190 clone 1 TCR (TCR, V domains shown)
V domain 1: SQQGEEDPQALSIQEGENATMNCSYKTSINNLQWYRQNSGRGLVHLILIRSNEREKHSGRLRVTLDTSKKSSSLLITASRAADTASYFCATDEAAGNKLTFGGGTRVLVKP
V domain 2: EPEVTQTPSHQVTQMGQEVILRCVPISNHLYFYWYRQILGQKVEFLVSFYNNEISEKSEIFDDQFSVERPDGSNFTLKIRSTKLEDSAMYFCASKRESLATGELFFGEGSRLTVLE
Take B12: the “Clone size (percent repertoire)” value in experiment [3] was 18.3 % of repertoire.

B13: OX747 Peptides 157/158 clone 3 TCR (TCR, V domains shown)
V domain 1: QKEVEQNSGPLSVPEGAIASLNCTYSDRGSQSFFWYRQYSGKSPELIMFIYSNGDKEDGRFTAQLNKASQYVSLLIRDSQPSDSATYLCAGRQTSYDKVIFGPGTSLSVIP
V domain 2: not shown
In the case of B13, the “Clone size (percent repertoire)” value in experiment [4] and in experiment [5] was 8.7 % of repertoire each time.

B14: OX289 Peptides 73/74 clone 1 TCR (TCR, V domains shown)
V domain 1: RGEDVEQSLFLSVREGDSSVINCTYTDSSSTYLYWYKQEPGAGLQLLTYIFSNMDMKQDQRLTVLLNKKDKHLSLRIADTQTGDSAIYFCAESPSDGQKLLFARGTMLKVDL
V domain 2: EAQVTQNPRYLITVTGKKLTVTCSQNMNHEYMSWYRQDPGLGLRQIYYSMNVEVTDKGDVPEGYKVSRKEKRNFPLILESPSPNQTSLYFCASSLRQGISPEQFFGPGTRLTVLE
B14: the “Clone size (percent repertoire)” value in experiment [6] and in experiment [7] was 32.3 % of repertoire throughout.

B15: OX628 Peptides 80/81 clone 3 TCR (TCR, V domains shown)
V domain 1: QKEVEQNSGPLSVPEGAIASLNCTYSDRGSQSFFWYRQYSGKSPELIMSIYSNGDKEDGRFTAQLNKASQYVSLLIRDSQPSDSATYLCAVSAGGTSYGKLTFGQGTILTVHP
V domain 2: DTAVSQTPKYLVTQMGNDKSIKCEQNLGHDTMYWYKQDSKKFLKIMFSYNNKELIINETVPNRFSPKSPDKAHLNLHINSLELGDSAVYFCASSQVLRGEQYFGPGTRLTVTE
For B15, the “Clone size (percent repertoire)” value in experiment [1] and in experiment [2] was 4.2 % of repertoire each time.

B16: OX747 Peptides 157/158 clone 1 TCR (TCR)
TCR alpha 1: KNEVEQSPQNLTAQEGEFITINCSYSVGISALHWLQQHPGGGIVSLFMLSSGKKKHGRLIATINIQEKHSSLHITASHPRDSAVYICAVSTGGATNKLIFGTGTLLAVQPNIQNPDPAVYQLRD
TCR alpha 2: KNEVEQSPQNLTAQEGEFITINCSYSVGISALHWLQQHPGGGIVSLFMLSSGKKKHGRLIATINIQEKHSSLHITASHPRDSAVYICAVQEGETSGSRLTFGEGTQLTVNPDIQNPDPAVYQLRD
TCR beta: NAGVTQTPKFQVLKTGQSMTLQCAQDMNHEYMSWYRQDPGMGLRLIHYSVGAGITDQGEVPNGYNVSRSTTEDFPLRLLSAAPSQTSVYFCASSPGFNGNTIYFGEGSWLTVVEDLNKVFPPEVAVFEPS
Regarding B16, the “Clone size (percent repertoire)” value in experiment [4] and in experiment [5] was 15.5 % of repertoire each time.
